From patent publication US20090269356, “Complement Binding Aptamers and Anti-C5 Agents Useful in the Treatment of Ocular Disorders” (published 2009)

Tests used:
[1] = biological target: complement C5 in human serum/blood (Homo sapiens, UniProt P01031); assay: inhibition; hemolysis, 0.2% human serum, 25 C; conditions: protein: extract
Method: Hemolysis Assay: The effect of ARC913 (SEQ ID NO: 75) on the classical pathway of the complement system was analyzed using a hemolysis assay previously described, compared to both ARC186 (SEQ ID NO: 4) (Anti-C5 aptamer, positive control) and unselected dRmY pool (negative control). In the assay of hemolytic inhibition, a solution of 0.2% whole human serum was mixed with antibody-coated sheep erythrocytes (Diamedix EZ Complement CH50 Test, Diamedix Corporation, Miami, Fla.) in the presence of titrated ARC913 (SEQ ID NO: 75). The assay was run in veronal-buffered saline containing calcium, magnesium and 1% gelatin (GVB⁺⁺ complement buffer) and incubated for 1 hr at 25° C. After incubation the samples were centrifuged. The optical density at 415 nm (OD₄₁₅) of the supernatant was read. The inhibition of hemolysis activity is expressed as % hemolysis activity compared to control. The IC₅₀ of the aptamer was calculated to be about 30 nM.

[2] = biological target: complement C5 (full length) (Homo sapiens, UniProt P01031); assay: filter; dot blot; 20% plateau; conditions: tags: Quidel / Complement Technologies A120.14 / Advanced Research Technologies
Method: The selection progress was monitored using a sandwich filter binding (dot blot) assay. The 5′-³²P-labeled pool RNA (trace concentration) was incubated with C5, 1×DPBS plus 0.1 mg/mL tRNA and 0.1 mg/mL salmon sperm DNA, for 30 minutes at room temperature, and then applied to a nitrocellulose and nylon filter sandwich in a dot blot apparatus (Schleicher and Schuell). The percentage of pool RNA bound to the nitrocellulose was calculated and monitored approximately every 3 rounds with a single point screen (+/−300 nM C5). Pool Kd measurements were measured using a titration of protein and the dot blot apparatus as described above.
Sequence Information: 45 clones from each pool were sequenced. R10 full length pool was dominated by one single clone ARC913 (SEQ ID NO: 75) which made up 24% of the pool, 2 sets of duplicates and single sequences made up the remainder. The R10 trypsinized pool contained 8 copies of the same sequence ARC913 (SEQ ID NO: 75), but the pool was dominated by another sequence (AMX221.A7; 46%).

Chain of complement C5 in human serum/blood (P01031 whole entry): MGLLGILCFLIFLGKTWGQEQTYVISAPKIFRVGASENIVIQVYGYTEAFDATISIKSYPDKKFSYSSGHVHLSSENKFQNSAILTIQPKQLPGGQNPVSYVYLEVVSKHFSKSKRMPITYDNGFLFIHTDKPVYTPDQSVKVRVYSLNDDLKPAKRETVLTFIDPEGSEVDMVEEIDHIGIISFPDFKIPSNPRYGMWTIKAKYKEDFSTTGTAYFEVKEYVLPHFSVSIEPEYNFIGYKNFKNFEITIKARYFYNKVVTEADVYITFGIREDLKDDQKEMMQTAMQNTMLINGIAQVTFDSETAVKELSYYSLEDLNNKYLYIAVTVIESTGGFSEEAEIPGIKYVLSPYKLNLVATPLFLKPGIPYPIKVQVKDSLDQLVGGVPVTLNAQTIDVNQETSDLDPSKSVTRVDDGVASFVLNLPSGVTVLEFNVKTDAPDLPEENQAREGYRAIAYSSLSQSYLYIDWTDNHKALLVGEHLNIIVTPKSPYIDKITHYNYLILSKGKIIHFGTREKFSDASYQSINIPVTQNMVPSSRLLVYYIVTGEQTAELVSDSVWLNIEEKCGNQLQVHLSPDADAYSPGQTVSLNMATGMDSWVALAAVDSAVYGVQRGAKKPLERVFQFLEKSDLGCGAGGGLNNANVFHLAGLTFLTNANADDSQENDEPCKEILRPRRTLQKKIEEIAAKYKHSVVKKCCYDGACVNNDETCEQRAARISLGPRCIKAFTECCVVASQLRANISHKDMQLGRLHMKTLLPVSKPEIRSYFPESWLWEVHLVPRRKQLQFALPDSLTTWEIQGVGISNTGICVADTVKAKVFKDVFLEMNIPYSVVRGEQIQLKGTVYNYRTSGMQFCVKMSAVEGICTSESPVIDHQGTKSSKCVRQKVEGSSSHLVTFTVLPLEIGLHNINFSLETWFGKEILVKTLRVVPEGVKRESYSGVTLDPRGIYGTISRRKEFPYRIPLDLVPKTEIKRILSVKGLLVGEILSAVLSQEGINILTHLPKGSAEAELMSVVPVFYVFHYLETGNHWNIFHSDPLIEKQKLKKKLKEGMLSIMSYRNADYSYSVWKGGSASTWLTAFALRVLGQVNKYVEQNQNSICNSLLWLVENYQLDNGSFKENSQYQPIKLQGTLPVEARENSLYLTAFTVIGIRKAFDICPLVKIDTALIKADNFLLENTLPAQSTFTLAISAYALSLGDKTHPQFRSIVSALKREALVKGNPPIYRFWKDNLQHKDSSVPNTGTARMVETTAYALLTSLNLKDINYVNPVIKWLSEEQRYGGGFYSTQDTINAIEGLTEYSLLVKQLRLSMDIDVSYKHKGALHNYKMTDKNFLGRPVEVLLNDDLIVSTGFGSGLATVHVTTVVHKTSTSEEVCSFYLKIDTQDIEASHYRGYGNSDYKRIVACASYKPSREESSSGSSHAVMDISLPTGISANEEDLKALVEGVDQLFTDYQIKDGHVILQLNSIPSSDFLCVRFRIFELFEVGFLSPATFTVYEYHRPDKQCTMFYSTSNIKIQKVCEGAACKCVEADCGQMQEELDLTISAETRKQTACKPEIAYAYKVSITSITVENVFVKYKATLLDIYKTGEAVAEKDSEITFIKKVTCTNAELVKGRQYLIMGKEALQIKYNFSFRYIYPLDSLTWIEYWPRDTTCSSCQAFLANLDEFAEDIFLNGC
Chain of complement C5 (full length) (P01031 whole entry): as above

B1: ARC913 (mixed)
RNA: GGGAGAGGAGAGAACGUUCUACCUUGGUUUGGCACAGGCAUACAUACGCAGGGGUCGAUCGAUCGAUCAUCGAUG
modifications: dRmY: A,G deoxy; C,U 2'-OMe
IC50 [1]: ~30 nM
Kd [2]: ~140 nM
